B1: H4H12166P2 (antibody, human IgG4, V domains shown)
VH: QVQLQESGPGLVKPSETLSLTCTVSGDSVSSSYWTWIRQPPGKGLEWIGYIYYSGSSNYNPSLKSRATISVDTSKNQFSLKLSSVTAADTAVYYCAREGNVDTTMIFDYWGQGTLVTVSS
VL: AIQMTQSPSSLSASVGDRVTITCRASQGIRNDLGWYQQKPGKAPKLLIYAASSLQSGVPSRFAGRGSGTDFTLTISSLQPEDFATYYCHQDFNYPWTFGQGTKVEIK
notes: human IgG4 Fc with S108P hinge mutation
B2: H4H12166P5 (antibody, human IgG4, V domains shown)
VH: B1 VH with F107H
VL: B1 VL with H89L
notes: as for B1
B3: H4H12166P10 (antibody, human IgG4, V domains shown)
VH: B1 VH with F107H
VL: B1 VL with H89L, T97H
notes: as for B1
B4: H4H12166P9 (antibody, human IgG4, V domains shown)
VH: B1 VH with T103H
VL: B1 VL with H89L, T97H
notes: as for B1
B5: H4H12166P6 (antibody, human IgG4, V domains shown)
VH: B1 VH with T103H
VL: B1 VL with H89L
notes: as for B1
B6: H4H12166P4 (antibody, human IgG4, V domains shown)
VH: B1 VH
VL: B1 VL with H89L, T97H
notes: as for B1
B7: H4H12166P8 (antibody, human IgG4, V domains shown)
VH: B1 VH with T103H
VL: B1 VL
notes: as for B1
B8: H4H12166P7 (antibody, human IgG4, V domains shown)
VH: B1 VH with G99H
VL: B1 VL with H89L, T97H
notes: as for B1

Positions count from the first letter of the chain named. Names and notes keep the numbering of the source.

One assay concerns the target T1, Human C5 (human, UniProt P01031 19-1676).
T1 construct: The natural protein has a beta and an alpha chain; also called complement factor 5; complement component 5
Description: SPR, mAb captured by anti-hFc, 25C. How it is done: (§1) Equilibrium dissociation constants (KD values) for C5 binding to purified anti-C5 antibodies were determined using a real-time surface plasmon resonance biosensor assay on a Biacore T200 instrument. The Biacore sensor surface was derivatized by amine coupling with a monoclonal mouse anti-human Fc antibody (GE Healthcare, # BR-1008-39) to capture anti-C5 antibodies expressed with human Fc constant regions. Biacore binding studies were conducted in HBST running buffer (0.01M HEPES pH 7.4, 0.15M NaCl, 3 mM EDTA, 0.05% v/v Surfactant P20).
(§2) Human C5 was obtained from a commercial source (EMD). Other C5 reagents were expressed with a C-terminal myc-myc-hexahistidine tag (subsequently referred to as C5-mmh). […] Association of all the C5 reagents to each of the captured monoclonal antibodies was monitored for 3 minutes and their dissociation in HBST running buffer was monitored for 8 minutes. All the binding kinetics experiments were performed at either 25° C. or 37° C. Kinetic association (kₐ) and dissociation (kd) rate constants were determined by fitting the real-time sensorgrams to a 1:1 binding model using Scrubber 2.0c curve fitting software. Binding dissociation equilibrium constants (KD) and dissociative half-lives (t %) were calculated from the kinetic rate constants as: KD (M)=kd/kₐ and t_{1/2} (min)=In2/(60×kd)
With B1, the “100 nM Human C5 Bound (RU)” value worked out at 95 RU, binding was put at a Kd of 0.438 nM, the koff was 0.000361 s⁻¹ and the kon was 826000 M⁻¹ s⁻¹. This molecule also displayed a t½ of 32 min.

As for B2, the “100 nM Human C5 Bound (RU)” value was found to be 110 RU, binding was characterised by a dissociation constant (Kd) of 1.15 nM, the off-rate constant (koff) is 0.000328 s⁻¹ and the kon worked out at 285000 M⁻¹ s⁻¹. The t½ was determined as 35 min.

As to B3, the “100 nM Human C5 Bound (RU)” value was 69 RU, the Kd turned out to be 8.38 nM, the koff turned out to be 0.00132 s⁻¹ and the on-rate (kon) amounted to 157000 M⁻¹ s⁻¹. Moreover, the t½ is 9 min.

For B4, the “100 nM Human C5 Bound (RU)” value came out at 100 RU, the Kd came out at 0.794 nM, the koff was 0.000264 s⁻¹ and the kon amounted to 332000 M⁻¹ s⁻¹. The molecule further came in with a t½ of 44 min.

Turning to B5, the “100 nM Human C5 Bound (RU)” value worked out at 131 RU, the Kd stood at 0.375 nM, the koff was 0.000184 s⁻¹ and the on-rate constant (kon) was 489000 M⁻¹ s⁻¹. The molecule also displayed a t½ of 63 min.

Regarding B6, the “100 nM Human C5 Bound (RU)” value is 92 RU; the affinity, expressed as Kd, was 0.395 nM; the koff is 0.000176 s⁻¹; the kon was determined as 446000 M⁻¹ s⁻¹. Also, the t½ worked out at 66 min.

As for B7, the “100 nM Human C5 Bound (RU)” value is 91 RU, the Kd came to 1.42 nM, the koff came to 0.000686 s⁻¹ and the kon came out at 484000 M⁻¹ s⁻¹. Also, the t½ came to 17 min.

With B8, the “100 nM Human C5 Bound (RU)” value came out at 92 RU, the Kd turned out to be 3.67 nM, the koff is 0.00101 s⁻¹ and the association rate constant (kon) turned out to be 274000 M⁻¹ s⁻¹. The same molecule displayed a t½ of 11 min.

Another assay has as its target T2, monkey C5-mmh (monkey, UniProt P01031 19-1676 (human entry), limits assumed).
T2 construct: Expressed with a C-terminal myc-myc-hexahistidine tag
T2 chain: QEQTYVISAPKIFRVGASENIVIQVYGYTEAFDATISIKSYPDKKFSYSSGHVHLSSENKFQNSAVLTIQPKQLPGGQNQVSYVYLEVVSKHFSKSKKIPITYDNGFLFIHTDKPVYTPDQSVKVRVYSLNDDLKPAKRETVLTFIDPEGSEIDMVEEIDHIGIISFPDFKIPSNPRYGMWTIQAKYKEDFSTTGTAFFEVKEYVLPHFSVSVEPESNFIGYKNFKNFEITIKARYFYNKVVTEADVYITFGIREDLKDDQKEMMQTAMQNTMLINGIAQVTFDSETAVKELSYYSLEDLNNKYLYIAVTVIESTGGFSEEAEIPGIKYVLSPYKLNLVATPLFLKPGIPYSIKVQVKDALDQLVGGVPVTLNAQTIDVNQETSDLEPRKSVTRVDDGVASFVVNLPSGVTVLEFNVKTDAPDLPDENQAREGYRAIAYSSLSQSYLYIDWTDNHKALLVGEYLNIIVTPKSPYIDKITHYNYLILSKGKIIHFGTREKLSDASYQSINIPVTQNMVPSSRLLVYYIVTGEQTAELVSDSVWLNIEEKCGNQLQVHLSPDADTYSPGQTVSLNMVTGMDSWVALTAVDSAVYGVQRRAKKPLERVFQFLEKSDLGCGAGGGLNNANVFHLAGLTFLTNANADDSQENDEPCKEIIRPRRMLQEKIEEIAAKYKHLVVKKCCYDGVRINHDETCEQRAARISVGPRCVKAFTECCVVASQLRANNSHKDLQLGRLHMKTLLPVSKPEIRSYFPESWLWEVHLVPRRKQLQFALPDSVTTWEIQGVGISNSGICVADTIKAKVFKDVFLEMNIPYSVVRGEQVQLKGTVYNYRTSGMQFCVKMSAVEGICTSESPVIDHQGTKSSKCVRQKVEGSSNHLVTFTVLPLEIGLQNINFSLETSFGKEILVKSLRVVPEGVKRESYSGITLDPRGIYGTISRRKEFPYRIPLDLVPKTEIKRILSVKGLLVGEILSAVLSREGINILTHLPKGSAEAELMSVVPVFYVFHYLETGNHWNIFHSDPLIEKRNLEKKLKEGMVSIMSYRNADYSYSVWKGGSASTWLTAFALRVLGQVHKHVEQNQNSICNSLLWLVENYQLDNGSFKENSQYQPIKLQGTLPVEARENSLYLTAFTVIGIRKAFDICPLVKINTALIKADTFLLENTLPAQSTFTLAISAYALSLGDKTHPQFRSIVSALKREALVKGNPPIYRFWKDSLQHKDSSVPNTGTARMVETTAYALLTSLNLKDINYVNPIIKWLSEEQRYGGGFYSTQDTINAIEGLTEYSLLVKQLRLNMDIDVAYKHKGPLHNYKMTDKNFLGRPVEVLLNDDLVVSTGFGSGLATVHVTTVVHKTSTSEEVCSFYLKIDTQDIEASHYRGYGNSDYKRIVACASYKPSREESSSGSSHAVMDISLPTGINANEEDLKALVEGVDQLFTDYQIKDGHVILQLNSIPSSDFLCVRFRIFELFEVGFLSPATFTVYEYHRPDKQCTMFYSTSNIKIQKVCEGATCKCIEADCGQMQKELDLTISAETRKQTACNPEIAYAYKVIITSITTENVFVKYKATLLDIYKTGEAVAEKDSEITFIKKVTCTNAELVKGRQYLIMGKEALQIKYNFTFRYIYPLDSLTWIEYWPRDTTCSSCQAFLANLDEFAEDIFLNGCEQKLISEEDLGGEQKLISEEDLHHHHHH
Description: SPR, mAb captured by anti-hFc, 25C. How it is done: as §1, §2
Turning to B1, the “100 nM monkey C5-mmh Bound (RU)” value worked out at 71 RU, the Kd amounted to 10.5 nM, the koff turned out to be 0.00316 s⁻¹ and the kon came to 300000 M⁻¹ s⁻¹. The “t1/2” value was determined as 4 min.

Consider B2, for which the “100 nM monkey C5-mmh Bound (RU)” value was 56 RU, the dissociation constant (Kd) came out at 24 nM, the dissociation rate constant (koff) was determined as 0.00346 s⁻¹ and the kon worked out at 144000 M⁻¹ s⁻¹. Further, the “t1/2” value amounted to 3 min.

On to B3, for which the “100 nM monkey C5-mmh Bound (RU)” value amounted to 15 RU; the affinity, expressed as Kd, was 64.4 nM; the off-rate constant (koff) amounted to 0.00616 s⁻¹; the kon turned out to be 95600 M⁻¹ s⁻¹. The “t1/2” value is 2 min.

On to B4, for which the “100 nM monkey C5-mmh Bound (RU)” value was 55 RU, the Kd worked out at 18.7 nM, the off-rate constant (koff) was determined as 0.00318 s⁻¹ and the kon turned out to be 170000 M⁻¹ s⁻¹. Besides, the “t1/2” value was 4 min.

Consider B5, for which the “100 nM monkey C5-mmh Bound (RU)” value turned out to be 94 RU, the Kd stood at 11.1 nM, the koff turned out to be 0.00266 s⁻¹ and the on-rate (kon) is 239000 M⁻¹ s⁻¹. Besides, the “t1/2” value came out at 4 min.

B6: the “100 nM monkey C5-mmh Bound (RU)” value is 69 RU, the dissociation constant Kd worked out at 8.5 nM, the koff came to 0.00178 s⁻¹ and the kon amounted to 210000 M⁻¹ s⁻¹. Besides, the “t1/2” value was determined as 6 min.

For the molecule B7, the “100 nM monkey C5-mmh Bound (RU)” value came to 47 RU, the dissociation constant (Kd) turned out to be 21.6 nM, the koff amounted to 0.00499 s⁻¹ and the kon came to 231000 M⁻¹ s⁻¹. For the same molecule, the “t1/2” value was 2 min.

As for B8, the “100 nM monkey C5-mmh Bound (RU)” value amounted to 36 RU, the Kd came to 46.5 nM, the koff was determined as 0.00633 s⁻¹ and the kon amounted to 136000 M⁻¹ s⁻¹. The “t1/2” value came to 2 min.

The target in another assay is T1, Human C5. Description: SPR, mAb captured by anti-hFc, 37C. How it is done:
as §1, §2
Take B1: the “100 nM Human C5 Bound (RU)” value is 110 RU, the Kd stood at 1.29 nM, the koff turned out to be 0.00123 s⁻¹ and the kon turned out to be 950000 M⁻¹ s⁻¹. In addition, the t½ came to 9 min.

With B2, the “100 nM Human C5 Bound (RU)” value was 129 RU, the Kd was determined as 2.77 nM, the koff amounted to 0.00122 s⁻¹ and the kon was found to be 440000 M⁻¹ s⁻¹. This molecule gave a t½ of 9 min.

As for B3, the “100 nM Human C5 Bound (RU)” value turned out to be 82 RU; the affinity, expressed as Kd, was 13.8 nM; the koff stood at 0.00314 s⁻¹; the kon was 227000 M⁻¹ s⁻¹. Also, the t½ stood at 4 min.

In the case of B4, the “100 nM Human C5 Bound (RU)” value was 122 RU, the Kd was determined as 1.7 nM, the koff was found to be 0.000639 s⁻¹ and the on-rate constant (kon) amounted to 375000 M⁻¹ s⁻¹. This molecule also gave a t½ of 18 min.

Regarding B5, the “100 nM Human C5 Bound (RU)” value is 157 RU, the Kd was determined as 0.875 nM, the koff is 0.000474 s⁻¹ and the kon was 542000 M⁻¹ s⁻¹. This molecule came in with a t½ of 24 min.

Take B6: the “100 nM Human C5 Bound (RU)” value came to 108 RU, the dissociation constant Kd stood at 0.93 nM, the koff turned out to be 0.000469 s⁻¹ and the kon worked out at 505000 M⁻¹ s⁻¹. For the same molecule, the t½ came to 25 min.

Turning to B7, the “100 nM Human C5 Bound (RU)” value came out at 98 RU, the equilibrium dissociation constant (Kd) was found to be 3.1 nM, the koff worked out at 0.00209 s⁻¹ and the kon is 675000 M⁻¹ s⁻¹. The molecule further showed a t½ of 6 min.

B8: the “100 nM Human C5 Bound (RU)” value came out at 105 RU, binding was put at a Kd of 7.39 nM, the koff turned out to be 0.00258 s⁻¹ and the kon came out at 349000 M⁻¹ s⁻¹. This molecule also gave a t½ of 4 min.

For the origin of these results see patent US20170355757A1 (Regeneron, published 2017).
